Data on two proteins can be found in article PMC8822174, “Evidence for the Rapid and Divergent Evolution of Mycoplasmas: Structural and Phylogenetic Analysis of Enolases” (Frontiers in Molecular Biosciences, 2021).

One may read the stoichiometry N as a count of units in the complex or per binding partner.

This series concerns the molecule itself. In words: native gel or EMSA. In general terms: In EMSA bound probe runs differently from free probe, usually more slowly.

B1: Mycoplasma bovis enolase (enzyme)
chain: MPIIERIQAREILDSRGNPTVQVEVTTDYEITGVANVPSGASTGSREALELRDKGTKYEGNWFGGKGVMTAVDNVNEKIAPELIGMSVFDQRAIDKLMIELDGTATKSKLGANAILGVSLAVARAAATELGMPLYRYIGGANAHTLPLPMLNVLNGGEHASNTVDFQEFMIMPVGAKSLREALQMANKVFHNLAKLLKKAGYGTQVGDEGGFAPNCKSHEEVLDYLVEAIKVAGYTPATSGKNAIAIALDAACSELYDENSKKYTFKKLKQAIAEKRSGFEHLDNVKLEYTTDELIEYFGKLIDKYPIISIEDGLAESDWEGFAKMTAKFGSKVQIVGDDLTVTNPKLLEKAIEQKSMNAILIKLNQIGSLSETMDAINKAQKANMACVVSHRSGETEDTTIADLAVAFNTGQIKTGSMSRTDRIAKYNRLLVIEEELGEQSEFEGSKAFYNIK
notes: also called Mb Eno; M. bovis Eno
For B1, the “stoichiometry N” value turned out to be 8.

B2: Mycoplasma pneumoniae enolase (enzyme)
chain: MSAQTGTDLFKIADLFAYQVFDSRGFPTVACVVKLASGHTGEAMVPSGASTGEKEAIELRDGDPKAYFGKGVSQAVQNVNQTIAPKLIGLNATDQAAIDALMIQLDGTPNKAKLGANAILAVSLAVAKAAASAQKTSLFKYLANQVMGLNKTEFILTVPMLNVINGGAHADNNIDFQEFMIMPLGANSMHQALKMASETFHALQKLLKQRGLNTNKGDEGGFAPNLKLAEEALDLMVEAIKAAGYQPGSDIAIALDVAASEFYDDTTKRYVFKKGIKAKILDEKEWSLTTAQMIAYLKKLTEQYPIISIEDGLSEHDWEGMETLTKTLGQHIQIVGDDLYCTNPAIAEKGVAHKATNSILIKLNQIGTLTETIKAINIAKDANWSQVISHRSGETEDTTIADLAVAACTGQIKTGSMSRSERIAKYNRLLQIELELGNNAKYLGWNTFKNIKPQKA
notes: also called Mp Eno; M. pneumoniae Eno
As to B2, the “stoichiometry N” value was 2.
